Results from patent publication US20030203372A1, “Analysis method” (priority 2000, published 2003).

Experiments:
[1] = test system: primary human cell cultures (11 cell types); assay: Custom gene array, 11 human cell types in normoxia or hypoxia for 6 hr and 18 hr; format: cell-based;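 on mRNA expression level, #1 HY 18 hr: cell type #1 is adipocyte from subcutaneous adult adipose tissue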;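 on mRNA expression level, #1 HY 6 hr: cell type #1 is adipocyte from subcutaneous adult adipose tissue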;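 on mRNA expression level, #1 NO: cell type #1 is adipocyte from subcutaneous adult adipose tissue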;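 on mRNA expression level, #2 HY 18 hr: cell type #2 is fetal cardiomyocyte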;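 on mRNA expression level, #2 HY 6 hr: cell type #2 is fetal cardiomyocyte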;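 on mRNA expression level, #2 NO: cell type #2 is fetal cardiomyocyte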;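 on mRNA expression level, #3 HY 6 hr: cell type #3 is human umbilical vein endothelial cells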;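 on mRNA expression level, #3 NO: cell type #3 is human umbilical vein endothelial cells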;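 on mRNA expression level, #4 HY 18 hr: cell type #4 is adult dermal fibroblast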;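 on mRNA expression level, #4 HY 6 hr: cell type #4 is adult dermal fibroblast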;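 on mRNA expression level, #4 NO: cell type #4 is adult dermal fibroblast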;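 on mRNA expression level, #5 HY 6 hr: cell type #5 is adult hepatocyte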;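 on mRNA expression level, #5 NO: cell type #5 is adult hepatocyte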;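 on mRNA expression level, #6 HY 6 hr: cell type #6 is blood-derived macrophage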;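 on mRNA expression level, #6 NO: cell type #6 is blood-derived macrophage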
Method in brief: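 Values are each gene's expression relative to its median over all cell types and conditions, after per-array normalisation to control genes and merging of replicate arrays. Cells were 11 human types, mostly unmodified primary cultures, kept in normoxia or exposed to hypoxia for 6 hr or 18 hr.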

human macrophages = assay: Custom gene array, macrophages with no cytokines, IL-10 or LPS + IFN, in normoxia and hypoxia; format: cell-based; conditions: for mRNA EXPRESSION (experimental condition) #1: #1 no cytokines/normoxia; for mRNA EXPRESSION (experimental condition) #2: #2 no cytokines/hypoxia; for mRNA EXPRESSION (experimental condition) #3: #3 IL-10/normoxia; for mRNA EXPRESSION (experimental condition) #4: #4 IL-10/hypoxia; for mRNA EXPRESSION (experimental condition) #5: #5 LPS/IFN/normoxia; for mRNA EXPRESSION (experimental condition) #6: #6 LPS/IFN/hypoxia
Method: Macrophages were derived and cultured as described elsewhere in the specification. A total of 6 experimental conditions were analysed, as shown below. Where cells were treated with cytokines or hypoxia (0.1% oxygen), this was for 6 hr. Lipopolysaccharide (LPS) (from E.coli 026:B6; Sigma), gamma Interferon (IFN) and Interleukin-10 (IL-10) were all used at a final concentration of 100 ng/ml. The effect of gamma Interferon and Lipopolysaccharide is to activate macrophages, with a Th1 biased phenotype, as found in many inflammatory conditions. Interleukin-10 is a Th2 cytokine and de-activates macrophages, and suppresses their effector functions.

[2] = Table 16, referenced to median of the gene over 6 conditions
[3] = Table 15, referenced to the median value of that gene throughout all 6 conditions

B1: p1G20 (nucleic acid, listed as Homo Sapiens)
DNA: GAGTAGGAGTGCCTCCTTGTCTGCACTGCTGGTATGGGGTTAGGCCAGGTAGGACATTCCAGAGGGGCTTCTGAAAACCAAGAGTCCCTGGGGAAAGGGAACAGAGTAAGGCAGGCCTTGTTCTCACTGCCCTCTAAGGGAACTTGGTCACTCGGCACTTTTAAGCCTCAGTTTCTCCAGTTCAATAATAAGGACAAGAGCTTTTCCCATGCATTCTCTTTCCCCGGGAAAGTTGACTGAGGTGACCAGTAATAGAATTGAAAAGGGAGAGTGTCTTCAGTGCAATGTGGCATCCTGGATTGGGTCTTGGAACAAAAACAGGACATTAGTGGGAAAATTGGAAATCTGAAAAAAGTCTGAATTTTAGTTAATATACCAATTTCAGTCTCTTGGTTTTGACAGATGTACCATGGTGATGTAAGATGTTGACCTTGGGGTAGGCTGGGTGAAGGGTATACAGGAACTCTTTGTACTATCTCTGCAACTTCTCTGTAAATCTAGTATCATTCCAAAATAAAAGTTTATTTAATTTAAAAAAAAAA
B1 was tested, and the “HIGHEST FOLD CHANGE IN HYPOXIA (hr hypoxia + cell type)” value ([1]; DOWN, 18 hr cardiomyocyte) was 4.17 DOWN (18 hr cardiomyocyte) ^ fold, the mRNA expression level ([1]; cell type #1, HY (hypoxia) 6 hr) was 0.48 and the mRNA expression level ([1]; cell type #1, HY (hypoxia) 18 hr) was 0.50. For the same molecule, the mRNA expression level ([1]; cell type #1, NO (normoxia)) was 0.74, the mRNA expression level ([1]; cell type #2, HY (hypoxia) 6 hr) was 0.66 and the mRNA expression level ([1]; cell type #2, HY (hypoxia) 18 hr) was 0.36. The mRNA expression level ([1]; cell type #2, NO (normoxia)) was 1.54, the mRNA expression level ([1]; cell type #3, HY (hypoxia) 6 hr) was 1.26 and the mRNA expression level ([1]; cell type #3, HY (hypoxia) 18 hr) was 1.03. For the same molecule, the mRNA expression level ([1]; cell type #3, NO (normoxia)) was 1.64, the mRNA expression level ([1]; cell type #4, HY (hypoxia) 6 hr) was 0.84 and the mRNA expression level ([1]; cell type #4, HY (hypoxia) 18 hr) was 0.84. It also gave a mRNA expression level ([1]; cell type #4, NO (normoxia)) of 0.99, a mRNA expression level ([1]; cell type #5, HY (hypoxia) 6 hr) of 1.19 and a mRNA expression level ([1]; cell type #5, NO (normoxia)) of 1.34. The mRNA expression level ([1]; cell type #6, HY (hypoxia) 6 hr) was 0.98, the mRNA expression level ([1]; cell type #6, NO (normoxia)) was 1.29 and the “mRNA EXPRESSION (experimental condition) #1” value (human macrophages; [2]) was 1.45. The “mRNA EXPRESSION (experimental condition) #2” value (human macrophages; [2]) was 0.73, the “mRNA EXPRESSION (experimental condition) #3” value (human macrophages; [2]) was 1.60 and the “mRNA EXPRESSION (experimental condition) #4” value (human macrophages; [2]) was 1.12. The “mRNA EXPRESSION (experimental condition) #5” value (human macrophages; [2]) was 0.57 and the “mRNA EXPRESSION (experimental condition) #6” value (human macrophages; [2]) was 0.44.

B2: p1E7 (nucleic acid, listed as Homo Sapiens)
DNA: GCTTGAGATCTCCAGCCTTACCGCGGCTCGAAATGGCCCCAACTGCTCCTGCACCACTGGTGTCTCCTGCANCTGCACCGGCTCCTGCAAGTGCAAAGAGTGCAAATGACCTCCTGCAAGAAGAGCTGCTGNNCTGCTGCCCCGTGGTGTGCAAGTGTGCCACGGTGTGTCTGCAAAGGGACGTTGGAGAACTGCAGCTGCTGTNCTGATGTGGGAACAAGCTCTTCTCCCAGATGTTAATAGAACAAGCTGCACAACCTGGGATTTTTTTTCAATACGATACTTGAGCCATTTTCTGCATTTCTTTTTATTGTTAAATATGTGAGTGACAATAAAACAATTTTGACTTTGAATCTTAAAAA
modifications: EST array clone; misc_feature 72, 132, 133, 205: n = A,T,C or G
For B2, the “mRNA expression level, #1 HY 6 hr” value ([1]; cell type #1, hypoxia 6 hr) was 1.29, the “mRNA expression level, #1 HY 18 hr” value ([1]; cell type #1, hypoxia 18 hr) was 1.63 and the “mRNA expression level, #1 NO” value ([1]; cell type #1, normoxia) was 1.20. The “mRNA expression level, #2 HY 6 hr” value ([1]; cell type #2, hypoxia 6 hr) was 0.18, the “mRNA expression level, #2 HY 18 hr” value ([1]; cell type #2, hypoxia 18 hr) was 0.22 and the “mRNA expression level, #2 NO” value ([1]; cell type #2, normoxia) was 0.12. For the same molecule, the “mRNA expression level, #3 HY 6 hr” value ([1]; cell type #3, hypoxia 6 hr) was 1.03, the “mRNA expression level, #3 HY 18 hr” value ([1]; cell type #3, hypoxia 18 hr) was 0.71 and the “mRNA expression level, #3 NO” value ([1]; cell type #3, normoxia) was 1.40. The “mRNA expression level, #4 HY 6 hr” value ([1]; cell type #4, hypoxia 6 hr) was 2.17, the “mRNA expression level, #4 HY 18 hr” value ([1]; cell type #4, hypoxia 18 hr) was 2.85 and the “mRNA expression level, #4 NO” value ([1]; cell type #4, normoxia) was 2.36. For the same molecule, the “mRNA expression level, #5 HY 6 hr” value ([1]; cell type #5, hypoxia 6 hr) was 6.75, the “mRNA expression level, #5 NO” value ([1]; cell type #5, normoxia) was 4.89 and the “mRNA expression level, #6 HY 6 hr” value ([1]; cell type #6, hypoxia 6 hr) was 1.07. The “#6 HY 18 hr (mRNA expression level)” value ([1]; cell type #6, hypoxia 18 hr) was 0.86, the “mRNA expression level, #6 NO” value ([1]; cell type #6, normoxia) was 0.08 and the “#7 HY 6 hr (mRNA expression level)” value ([1]; cell type #7, hypoxia 6 hr) was 2.06. For the same molecule, the “#7 HY 18 hr (mRNA expression level)” value ([1]; cell type #7, hypoxia 18 hr) was 1.32, the “#7 NO (mRNA expression level)” value ([1]; cell type #7, normoxia) was 0.87 and the “#8 HY 6 hr (mRNA expression level)” value ([1]; cell type #8, hypoxia 6 hr) was 0.75. The “#8 HY 18 hr (mRNA expression level)” value ([1]; cell type #8, hypoxia 18 hr) was 1.20, the “#8 NO (mRNA expression level)” value ([1]; cell type #8, normoxia) was 0.03 and the “#9 HY 6 hr (mRNA expression level)” value ([1]; cell type #9, hypoxia 6 hr) was 0.05. The “#9 HY 18 hr (mRNA expression level)” value ([1]; cell type #9, hypoxia 18 hr) was 0.04, the “#9 NO (mRNA expression level)” value ([1]; cell type #9, normoxia) was 0.04 and the “#10 HY 6 hr (mRNA expression level)” value ([1]; cell type #10, hypoxia 6 hr) was 2.60. For the same molecule, the “#10 HY 18 hr (mRNA expression level)” value ([1]; cell type #10, hypoxia 18 hr) was 3.60, the “#10 NO (mRNA expression level)” value ([1]; cell type #10, normoxia) was 3.09 and the “#11 HY 6 hr (mRNA expression level)” value ([1]; cell type #11, hypoxia 6 hr) was 0.70. For the same molecule, the “#11 HY 18 hr (mRNA expression level)” value ([1]; cell type #11, hypoxia 18 hr) was 0.74, the “#11 NO (mRNA expression level)” value ([1]; cell type #11, normoxia) was 0.60 and the “HIGHEST FOLD CHANGE IN HYPOXIA (hr hypoxia + cell type)” value ([1]; hypoxia/normoxia induction ratio, 18 hr monocyte) was 37.9 (18 hr monocyte) fold. The “mRNA EXPRESSION (experimental condition) #1” value (human macrophages; [3]) was 0.49, the “mRNA EXPRESSION (experimental condition) #2” value (human macrophages; [3]) was 1.26 and the “mRNA EXPRESSION (experimental condition) #3” value (human macrophages; [3]) was 0.70. The “mRNA EXPRESSION (experimental condition) #4” value (human macrophages; [3]) was 1.11, the “mRNA EXPRESSION (experimental condition) #5” value (human macrophages; [3]) was 1.32 and the “mRNA EXPRESSION (experimental condition) #6” value (human macrophages; [3]) was 2.89.

B3: p2L23 (nucleic acid, listed as Homo Sapiens)
DNA: GGAGCTGTTTACCCCCACTCTAATAGGGGTTCAATATAAAAAGCCGGCAGAGAGCTGTCCAAGTCAGACGCGCCTCTGCATCTGCGCCAGGCGAACGGGTCCTGCGCCTCCTGCAGTCCCAGCTCTCCACCACCGCCGCGTGCGCCTGCAGACGCTCCGCTCGCTGCCTTCTCTCCTGGCAGGCGCTGCCTTTTCTCCCCGTTAAAGGGCACTTGGGCTGAAGGATCGCTTTGAGATCTGAGGAACCCGCAGCGCTTTGAGGGACCTGAAGCTGTTTTTCTTCGTTTTCCTTTGGGTTCAGTTTGAACGGGAGGTTTTTGATCCCTTTTTTTCAGAATGGATTATTTGCTCATGATTTTCTCTCTGCTGTTTGTGGCTTGCCAAGGAGCTCCAGAAACAGCAGTCTTAGGCGCTGAGCTCAGCGCGGTGGGTGAGAACGGCGGGGAGAAACCCACTCCCAGTCCACCCTGGCGGCTCCGCCGGTCCAAGCGCTGCTCCTGCTCGTCCCTGATGGATAAAGAGTGTGTCTACTTCTGCCACCTGGACATCATTTGGGTCAACACTCCCGAGCACGTTGTTCCGTATGGACTTGGAAGCCCTAGGTCCAAGAGAGCCTTGGAGAATTTACTTCCCACAAAGGCAACAGACCGTGAGAATAGATGCCAATGTGCTAGCCAAAAAGACAAGAAGTGCTGGAATTTTTGCCAAGCAGGAAAAGAACTCAGGGCTGAAGACATTATGGAGAAAGACTGGAATAATCATAAGAAAGGAAAAGACTGTTCCAAGCTTGGGAAAAAGTGTATTTATCAGCAGTTAGTGAGAGGAAGAAAAATCAGAAGAAGTTCAGAGGAACACCTAAGACAAACCAGGTCGGAGACCATGAGAAACAGCGTCAAATCATCTTTTCATGATCCCAAGCTGAAAGGCAAGCCCTCCAGAGAGCGTTATGTGACCCACAACCGAGCACATTGGTGACAGACTTCGGGGCCTGTCTGAAGCCATAGCCTCCACGGAGAGCCCTGTGGCCGACTCTGCACTCTCCACCCTGGCTGGGATCAGAGCAGGAGCATCCTCTGCTGGTTCCTGACTGGCAAAGGACCAGCGTCCTCGTTCAAAACATTCCAAGAAAGGTTAAGGAGTTCCCCCAACCATCTTCACTGGCTTCCATCAGTGGTAACTGCTTTGGTCTCTTCTTTCATCTGGGGATGACAATGGACCTCTCAGCAGAAACACACAGTCACATTCGAATTC
For B3, the “mRNA EXPRESSION (experimental condition) #1” value (human macrophages; [3]) was 1.02, the “mRNA EXPRESSION (experimental condition) #2” value (human macrophages; [3]) was 0.62 and the “mRNA EXPRESSION (experimental condition) #3” value (human macrophages; [3]) was 0.74. The “mRNA EXPRESSION (experimental condition) #4” value (human macrophages; [3]) was 0.50, the “mRNA EXPRESSION (experimental condition) #5” value (human macrophages; [3]) was 11.4 and the “mRNA EXPRESSION (experimental condition) #6” value (human macrophages; [3]) was 10.1.
